Data as given in patent US7125979.
Non-standard residues stand in square brackets, D forms with d. No end group written: not given here.

Legend:
Experiment in all cases: cell-based or functional assay
NPY Y2 receptor (mouse) = NPY Y2 receptor (mouse) (UniProt P97295)
[1] = target: µ-opioid receptor (mouse) (UniProt P42866)
MC3-R (mouse) = MC3-R (mouse) (UniProt P33033)
MC3-R (mouse), sequence (P33033 whole entry): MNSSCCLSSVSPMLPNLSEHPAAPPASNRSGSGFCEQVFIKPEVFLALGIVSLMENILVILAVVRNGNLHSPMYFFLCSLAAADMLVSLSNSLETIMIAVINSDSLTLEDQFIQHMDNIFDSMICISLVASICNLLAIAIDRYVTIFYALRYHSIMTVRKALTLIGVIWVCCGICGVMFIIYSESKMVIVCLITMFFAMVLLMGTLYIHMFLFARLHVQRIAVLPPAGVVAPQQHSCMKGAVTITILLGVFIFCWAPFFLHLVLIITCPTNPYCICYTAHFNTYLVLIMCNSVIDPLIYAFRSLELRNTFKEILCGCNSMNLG

µ-opioid receptor (mouse), sequence (P42866 whole entry): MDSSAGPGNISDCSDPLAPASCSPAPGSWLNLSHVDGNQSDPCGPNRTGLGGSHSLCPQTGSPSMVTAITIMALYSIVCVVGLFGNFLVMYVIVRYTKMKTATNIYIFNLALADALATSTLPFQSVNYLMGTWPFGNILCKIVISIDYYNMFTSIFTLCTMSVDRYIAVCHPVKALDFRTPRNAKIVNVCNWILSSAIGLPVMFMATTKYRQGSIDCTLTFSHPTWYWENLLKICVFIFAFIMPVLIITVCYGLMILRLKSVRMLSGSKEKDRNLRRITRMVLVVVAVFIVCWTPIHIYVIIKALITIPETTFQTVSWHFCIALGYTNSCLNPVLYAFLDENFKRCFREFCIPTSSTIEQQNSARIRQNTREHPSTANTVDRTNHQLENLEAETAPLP
NPY Y2 receptor (mouse), sequence (P97295 whole entry): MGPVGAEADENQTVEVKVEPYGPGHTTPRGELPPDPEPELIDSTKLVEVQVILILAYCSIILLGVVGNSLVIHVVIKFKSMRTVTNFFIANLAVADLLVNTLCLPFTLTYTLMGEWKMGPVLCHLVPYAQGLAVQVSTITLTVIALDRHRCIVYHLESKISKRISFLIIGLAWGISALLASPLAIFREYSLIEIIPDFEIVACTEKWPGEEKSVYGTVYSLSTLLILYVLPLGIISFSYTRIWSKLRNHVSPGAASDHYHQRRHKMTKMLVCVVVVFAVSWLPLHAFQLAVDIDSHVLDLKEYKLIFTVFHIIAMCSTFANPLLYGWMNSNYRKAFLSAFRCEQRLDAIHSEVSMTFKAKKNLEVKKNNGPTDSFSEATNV

Molecule: N-acetyl (Leu^28, Leu^31) NPY (24-36) (from UniProt P01303 52-64) (peptide)
- reduction of the frequency of inhibitory postsynaptic currents (IPSCs) onto POMC neurons (NPY Y2 receptor (mouse)): 44.4%

Molecule: neuropeptide Y (from UniProt P01303 29-64)
- decrease of the frequency of GABAergic IPSCs in POMC cells (100 nM NPY) (NPY Y2 receptor (mouse)): 55%

B1: met-enkephalin (peptide, UniProt P01210 100-104, looked up)
peptide: YGGFM
- hyperpolarization of the membrane potential of POMC cells (whole cell recording, 30 µM Met-Enk) [1]: 10 to 20 mV

B2: D-Trp^8-γMSH (peptide, UniProt P01189 77-88, looked up)
peptide: YVMGHFR[dW]DRFG
modifications: ends and bridges not checked
- frequency of GABAergic IPSCs recorded from POMC neurons (7 nM) (MC3-R (mouse)): 280%
- hyperpolarization of POMC neurons (7 nM) (MC3-R (mouse)): -5.5 mV
